Among the data in patent US20140255415A1 (Novartis, published 2014) are Kd and App. KD ratio w/o CSF:w/ CSF values, retold here.

Where a chain is given by its changes, count along the chain named.

The target of assay [1] is human LINGO-1 expressed on CHO-K1 cells (CHO-K1-hLINGO-1) (human) (UniProt Q96FE5). As to the kind of experiment: apparent KD, FACS saturation binding on CHO-K1-hLINGO-1 cells, IgG4, with 50% human cerebro-spinal fluid.
For assay [2] the target is unchanged. As to the kind of experiment: ratio of apparent KDs, FACS saturation binding on CHO-K1-hLINGO-1 cells, IgG4, without against with 50% human CSF.
Assay [3] has the same target. As to the kind of experiment: apparent KD, FACS saturation binding on CHO-K1-hLINGO-1 cells, IgG4 pre-incubated in FACS buffer + 2.6% BSA.
The target is the same in assay [4]. As to the kind of experiment: apparent KD, FACS saturation binding on CHO-K1-hLINGO-1 cells, IgG4, without 50% human cerebro-spinal fluid (control).
The target of assay [5] is T1, cynomolgus monkey LINGO-1 expressed on CHO-K1 cells (CHO-K1-cmLINGO-1) (cynomolgus monkey, UniProt Q9N008 34-614).
T1 construct: range 34-614; also called Cynomolgus LINGO-1; not shown: 2 amino acid residue linker
T1 sequence (looked up): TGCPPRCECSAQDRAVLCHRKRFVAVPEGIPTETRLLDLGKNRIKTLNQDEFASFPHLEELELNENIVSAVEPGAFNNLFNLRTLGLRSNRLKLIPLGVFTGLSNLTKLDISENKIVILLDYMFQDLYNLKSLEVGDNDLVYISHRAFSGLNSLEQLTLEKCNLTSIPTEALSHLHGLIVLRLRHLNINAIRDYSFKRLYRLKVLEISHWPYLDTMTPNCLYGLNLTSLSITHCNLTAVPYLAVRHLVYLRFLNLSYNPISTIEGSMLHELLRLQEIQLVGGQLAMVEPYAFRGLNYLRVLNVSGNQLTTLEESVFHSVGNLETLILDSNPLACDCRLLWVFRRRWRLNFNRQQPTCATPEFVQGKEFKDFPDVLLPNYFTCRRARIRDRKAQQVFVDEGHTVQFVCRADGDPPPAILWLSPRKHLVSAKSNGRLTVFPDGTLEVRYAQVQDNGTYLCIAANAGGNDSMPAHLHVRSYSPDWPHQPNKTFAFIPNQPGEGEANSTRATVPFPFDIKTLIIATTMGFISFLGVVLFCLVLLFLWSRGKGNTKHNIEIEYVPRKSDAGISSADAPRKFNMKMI
As to the kind of experiment: apparent KD, FACS saturation binding on CHO-K1-cmLINGO-1 cells, IgG4 format. As to the method:
(§1) Cell based affinity of anti-LINGO-1 specific antibodies is determined by FACS saturation binding experiments. The determination of the apparent KD values is carried out identical to the procedure described above using anti-LINGO-1 Fab antibodies.
(§2) In detail, CHO-K1-hLINGO-1, CHO-K1-cmLINGO-1 or CHO-K1-rLINGO-1 are detached from culture flasks by versene, washed with FACS buffer and resuspended in FACS buffer. Purified anti-LINGO-1 IgG4s are serially diluted in FACS buffer and spread into round bottom 96-well microtiter plates (NUNC™, Wiesbaden, Germany). For each concentration, duplicate wells are incubated with 1.25×10⁴ cells for 30-60 min on ice in a total volume of 100 μl. […] Using this assay the following apparent KD values can be determined (Table 3).

Assay [6] has as its target T2, rat LINGO-1 expressed on CHO-K1 cells (CHO-K1-rLINGO-1) (rat, UniProt A0A8I5ZPI2 34-614).
T2 construct: range 34-614; not shown: 2 amino acid residue linker
T2 sequence: T1 sequence (looked up) with S261G, M286V, V315A, R386H, P494S
As to the kind of experiment: apparent KD, FACS saturation binding on CHO-K1-rLINGO-1 cells, IgG4 format. As to the method:
as §1, §2

Assay [7] addresses human LINGO-1 expressed on CHO-K1 cells (CHO-K1-hLINGO-1) (human) (UniProt Q96FE5). As to the kind of experiment: apparent KD, FACS saturation binding on CHO-K1-hLINGO-1 cells, IgG4 pre-incubated in FACS buffer + 50% human serum.
Assay [8] has the same target. As to the kind of experiment: apparent KD, FACS saturation binding on CHO-K1-hLINGO-1 cells, IgG4 format.
Assay [9] has the same target. As to the kind of experiment: apparent KD, FACS saturation binding on CHO-K1-hLINGO-1 cells, IgG4 pre-incubated in FACS buffer.
The target in assay [10] is T3, human LINGO-2 expressed on CHO-K1 cells (CHO-K1-hLINGO-2) (human, UniProt Q7L985 26-606).
T3 construct: range 26-606; not shown: 2 amino acid residue linker
T3 sequence (looked up): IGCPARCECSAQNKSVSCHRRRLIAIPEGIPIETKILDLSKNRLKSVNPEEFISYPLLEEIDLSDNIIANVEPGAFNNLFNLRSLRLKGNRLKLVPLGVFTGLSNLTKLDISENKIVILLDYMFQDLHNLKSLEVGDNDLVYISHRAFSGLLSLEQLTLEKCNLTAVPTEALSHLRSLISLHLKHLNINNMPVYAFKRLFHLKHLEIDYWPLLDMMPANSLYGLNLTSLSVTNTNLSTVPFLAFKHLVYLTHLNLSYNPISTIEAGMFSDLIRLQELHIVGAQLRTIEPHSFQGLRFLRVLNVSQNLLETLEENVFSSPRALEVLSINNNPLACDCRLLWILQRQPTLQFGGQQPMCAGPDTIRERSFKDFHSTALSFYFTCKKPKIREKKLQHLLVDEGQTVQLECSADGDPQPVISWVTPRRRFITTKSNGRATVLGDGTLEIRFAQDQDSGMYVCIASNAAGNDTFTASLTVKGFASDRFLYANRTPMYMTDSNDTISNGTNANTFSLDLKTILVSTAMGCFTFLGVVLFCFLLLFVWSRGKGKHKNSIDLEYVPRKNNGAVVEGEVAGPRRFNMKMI
As to the kind of experiment: apparent KD, FACS saturation binding on CHO-K1-hLINGO-2 cells, IgG4 format.

B1: anti-LINGO-1 IgG4 antibody 4785 (antibody, V domains shown)
VH: QVQLQQSGPGLVKPSQTLSLTCAISGDSVSDNSAAWSWIRQSPGRGLEWLGLIYLRSKWDNDYAVSVKSRITINPDTSKNQFSLQLNSVTPEDTAVYYCARTGRADEFDVWGQGTLVTVSS
VL: DIVLTQPPSVSGAPGQRVTISCSGSSSNIGNNYVSWYQQLPGTAPKLLISRNSKRPSGVPDRFSGSKSGTSASLAITGLQSEDEADYYCSTYDTFSIVFGGGTKLTVLG
Turning to B1, the Kd came out at 0.25 nM in assay [1]; 0.05 nM in assay [3]; 0.19 nM in [4]; 0.18 nM in assay [5]; 0.07 nM in assay [6]; 0.06 nM in assay [7]. In addition, the figures for the Kd in [8], in [9] and in assay [10] were 0.07 nM, 0.08 nM and 0.95 nM, respectively. Moreover, in [2], the App. KD ratio w/o CSF:w/ CSF amounted to 0.76.
